Three substances from PMC4506568, “Targeting a Dynamic Protein–Protein Interaction: Fragment Screening against the Malaria Myosin A Motor Complex” (Chemmedchem, 2014) can be followed below.

Assay [1] addresses Plasmodium falciparum myosin A tail domain interacting protein, residues 61–204 (PfMTIPΔ60) (Plasmodium falciparum) (UniProt Q8I4W8). Briefly: differential scanning fluorimetry; 5 μM PfMTIPΔ60 with 200 μM peptide in buffer A (20 mM HEPES pH 7.5, 50 mM NaCl, 1 mM TCEP), 10× SYPRO Orange, 15–80 °C.
Assay [2] has the same target. Briefly: ITC; 303 K; cell with about 200 μL of 20 μM PfMTIPΔ60 in buffer A (20 mM HEPES pH 7.5, 50 mM NaCl, 1 mM TCEP); peptide added in 2 μL injections from 250 μM; single site fit; n=1. (In general: Isothermal titration calorimetry measures the heat released or taken up as one component is titrated into another.)

For “acetylated peptide control1 (acetyl-capped myoA tail from Leu 805) (from UniProt Q8IDR3 805-818)”, the Tm of the complex in assay [1] is 45.4 °C.

“acetylated peptide control3 (acetyl-capped myoA tail from Ser 803) (from UniProt Q8IDR3 803-818)” came in with a Kd in assay [2] of 0.106 µM. In addition, the Tm of the complex in assay [1] was 54.9 °C.

For “acetylated peptide control2 (acetyl-capped myoA tail from Leu 804) (from UniProt Q8IDR3 804-818)”, in assay [1], the Tm of the complex is 54.5 °C.

The Kd is the constant that tells how readily two partners part at equilibrium.
